Experimental findings from doi:10.1101/2022.11.10.516004 (bioRxiv, 2022) are described below.

The data set concerns the molecule itself. Nature of the data set: NMR titration.

B1: TDP-43 C-terminal domain (CTD), wild type (domain or fragment, human, UniProt Q13148 267-414, looked up)
chain: NRQLERSGRFGGNPGGFGNQGGFGNSRGGGAGLGNNQGSNMGGGMNFGAFSINPAMMAAAQAALQSSWGMMGMLASQQNQSGPSGNNQNQGNMQREPNQAFGSGNNSYSGSNSGAAIGWGSASNAGSGSGFNGGFGSSMDSKSSGWGM
B1: the binding result is listed as “binds”.
